From patent US20230414780A1 (VECT HORUS, published 2023)
Values belong to the binder of their own block, whether it stands above or below them.

How the values were obtained:
[1] = molecular target: T1, human transferrin receptor (hTfR) fused to EGFP, on CHO cells (human, UniProt P02786 1-760); assay: flow cytometry, CHO cells
T1 construct: whole, on cells; also called human TfR; CHO-hTfR-EGFP; not shown: EGFP from pEGFP-C1 vector, fused to the N-terminal (intracellular) end of hTfR
Experimental: (§1) The binding properties of VHHs with affinity for the TfR from different species (i.e., human (h), mouse (m) and rhesus monkey (rh)) were tested using flow cytometry, and apparent affinities (Kd app) were determined. All experiments were performed in 96 well plates using 2×10⁵ cells/well, at 4° C. with shaking. CHO cell lines expressing the hTfR, mTfR or rhTfR fused to EGFP were saturated with PBS/BSA 2% solution during 30 min to avoid nonspecific binding, followed by incubation with purified VHHs at increasing concentrations for 1 hr. After one wash in PBS/BSA 2%, cells were incubated for 1 hr with an anti-6His tag antibody (mouse), washed twice with PBS/BSA 2%, and incubated for 1 hr with an Alexa647-conjugated anti-mouse secondary antibody. After two last washes in PBS/BSA 2%, cells were fixed by incubation for 15 min with PBS/PFA 2%, washed once with PBS and finally resuspended in PBS. Fluorescence levels were assessed using an Attune NxT flow cytometer (Thermo Fisher Scientific). Experimental data were fitted with GraphPad Prism® software using a nonlinear fit to determine the apparent Kd constants. […] Table 5 hereafter summarizes apparent Kd obtained for the tested VHHs.

[2] = molecular target: T2, mouse transferrin receptor (mTfR) fused to EGFP, on CHO cells (mouse, UniProt Q62351 1-763); assay: flow cytometry, CHO cells
T2 construct: whole, on cells; also called mouse TfR; CHO-mTfR-EGFP; not shown: EGFP
Experimental: as §1

[3] = molecular target: T1, human transferrin receptor (hTfR) fused …; assay: apparent Kd, flow cytometry, CHO cells
[4] = molecular target: T2, mouse transferrin receptor (mTfR) fused …; assay: flow cytometry on CHO-mTfR-EGFP cells, 1 hr at 4 C, anti-6His + Alexa647 anti-mouse
Experimental: (A) CHO-hTfR-EGFP and CHO-mTfR-EGFP cells were incubated 1 hr at 4° C. with various concentrations of VHHs, detected with a mouse anti-6His (1/1000) and an Alexa647-conjugated anti-mouse secondary antibody (1/400). Measurements were performed using flow cytometry. The ratio of fluorescence intensity for each point was normalized with the corresponding EGFP signal (receptor expression) and gave rise to the arbitrary unit. Data are presented as mean±SEM of 3 independent experiments. (B) Characteristics of VHHs: Molecular Weight (Da); Theoretical pI; Apparent Kd on human TfR (nM); Apparent Kd on mouse TfR (nM). Data are presented as mean±SEM of 3 independent experiments. NB: no binding, LB: low binding.
All experiments were performed in 96 well plates using 2×10⁵ cells/well, at 4° C. with shaking. CHO cell lines stably expressing the hTfR or the mTfR fused to EGFP or CHO WT cells were saturated with PBS/BSA 2% solution during 30 min to avoid non-specific binding, followed by incubation with purified VHHs at concentrations ranging from 50 μM to 5 μM for 1 hr. After one wash in PBS/BSA 2%, cells were incubated for 1 hr with an anti-6His tag antibody (mouse), washed twice with PBS/BSA 2%, and incubated for 45 min with an Alexa647-conjugated anti-mouse secondary antibody. […] Fluorescence levels were assessed using an Attune NxT Flow Cytometer (Thermo Fisher Scientific).

[5] = molecular target: T1, human transferrin receptor (hTfR) fused …; assay: apparent Kd, cell-based assay
[6] = molecular target: T1, human transferrin receptor (hTfR) fused …; assay: cell-based assay on hTfR; Kd/app (the text, paragraph 408, gives 16.7 nM for this molecule)
[7] = molecular target: T1, human transferrin receptor (hTfR) fused …; assay: apparent Kd, flow cytometry, CHO cells; remark: listed apart in the source
Procedure, shortened: (§2)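 CHO cells expressing TfR-EGFP fusions, blocked in PBS/BSA 2%, then incubated with increasing VHH concentrations for 1 hr at 4° C. Bound VHH detected via anti-6His antibody and Alexa647 secondary, cells PFA-fixed, read by flow cytometry. Apparent Kd from nonlinear fit.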

[8] = molecular target: T3, rhesus monkey transferrin receptor (rhTfR) fused to EGFP, on CHO cells (rhesus monkey); assay: apparent Kd, flow cytometry, CHO cells
T3 construct: whole, on cells; also called rhesus monkey TfR
Procedure, shortened: as §2

[9] = molecular target: T1, human transferrin receptor (hTfR) fused …; assay: competition flow cytometry on CHO-hTfR-EGFP cells, 4 C; VHH competitor in dilution series, phage-H1 tracer at EC80, anti-M13-A647
Experimental: FIGS. 17A-17D: Competition assays between VHHs and phage-VHHs. CHO-hTfR-EGFP cells were incubated 1 hr at 4° C. with VHHs (competitors) at increasing concentrations. Phage-VHHs (tracers) were then added at EC80 and incubated for 1 more hr. Phage-VHHs were detected with an anti-M13-A647 antibody (1/200). Fluorescence levels were assessed using flow cytometry. The ratio of fluorescence intensity for each point was normalized with the corresponding EGFP signal (receptor expression) and gave rise to the arbitrary unit. Data are presented as mean±SEM of independent experiments.
To evaluate whether selected VHHs compete one with the other for binding to the TfR receptor, competition assays using flow cytometry experiments were performed. All experiments were performed in 96 well plates using 2×10⁵ cells/well, at 4° C. with shaking. CHO cell line expressing the hTfR fused to EGFP was saturated with PBS/BSA 2% solution during 30 min to avoid nonspecific binding, followed by incubation with VHH (competitors) at increasing concentrations for 1 hr. Then, phage-VHHs (tracers) at EC80 were added and incubated 1 hr more. To detect the phage-VHHs, cells were washed twice with PBS/BSA 2% and incubated for 1 hr with an Alexa647-conjugated anti-M13 antibody. […] Fluorescence levels were assessed using an Attune NxT flow cytometer (Thermo Fisher Scientific). […]

[10] = molecular target: T1, human transferrin receptor (hTfR) fused …; assay: cell-based assay on hTfR; Kd/app (the text, paragraph 408, gives 25.6 nM for this molecule)

T2 sequence (Q62351 whole entry, the tested form may be a part): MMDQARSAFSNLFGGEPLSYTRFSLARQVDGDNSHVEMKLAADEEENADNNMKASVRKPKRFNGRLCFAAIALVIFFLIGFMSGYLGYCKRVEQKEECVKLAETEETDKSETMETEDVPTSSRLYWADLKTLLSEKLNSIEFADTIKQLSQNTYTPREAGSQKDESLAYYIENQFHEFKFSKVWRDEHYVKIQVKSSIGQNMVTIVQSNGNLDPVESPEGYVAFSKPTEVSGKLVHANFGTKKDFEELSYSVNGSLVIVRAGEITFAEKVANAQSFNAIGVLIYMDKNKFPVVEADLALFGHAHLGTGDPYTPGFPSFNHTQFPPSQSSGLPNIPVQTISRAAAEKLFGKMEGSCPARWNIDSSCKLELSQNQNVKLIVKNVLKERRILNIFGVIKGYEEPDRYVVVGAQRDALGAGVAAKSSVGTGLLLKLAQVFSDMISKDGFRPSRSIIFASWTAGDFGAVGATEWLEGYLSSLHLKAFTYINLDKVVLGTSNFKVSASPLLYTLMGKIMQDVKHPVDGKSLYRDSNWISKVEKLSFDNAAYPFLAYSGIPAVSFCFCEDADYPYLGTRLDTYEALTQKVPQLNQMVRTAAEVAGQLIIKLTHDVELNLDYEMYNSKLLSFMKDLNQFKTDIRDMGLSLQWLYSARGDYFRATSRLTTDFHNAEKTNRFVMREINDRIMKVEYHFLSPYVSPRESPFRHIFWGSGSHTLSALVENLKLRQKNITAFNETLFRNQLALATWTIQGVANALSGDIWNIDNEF
T1 sequence (P02786 whole entry, the tested form may be a part): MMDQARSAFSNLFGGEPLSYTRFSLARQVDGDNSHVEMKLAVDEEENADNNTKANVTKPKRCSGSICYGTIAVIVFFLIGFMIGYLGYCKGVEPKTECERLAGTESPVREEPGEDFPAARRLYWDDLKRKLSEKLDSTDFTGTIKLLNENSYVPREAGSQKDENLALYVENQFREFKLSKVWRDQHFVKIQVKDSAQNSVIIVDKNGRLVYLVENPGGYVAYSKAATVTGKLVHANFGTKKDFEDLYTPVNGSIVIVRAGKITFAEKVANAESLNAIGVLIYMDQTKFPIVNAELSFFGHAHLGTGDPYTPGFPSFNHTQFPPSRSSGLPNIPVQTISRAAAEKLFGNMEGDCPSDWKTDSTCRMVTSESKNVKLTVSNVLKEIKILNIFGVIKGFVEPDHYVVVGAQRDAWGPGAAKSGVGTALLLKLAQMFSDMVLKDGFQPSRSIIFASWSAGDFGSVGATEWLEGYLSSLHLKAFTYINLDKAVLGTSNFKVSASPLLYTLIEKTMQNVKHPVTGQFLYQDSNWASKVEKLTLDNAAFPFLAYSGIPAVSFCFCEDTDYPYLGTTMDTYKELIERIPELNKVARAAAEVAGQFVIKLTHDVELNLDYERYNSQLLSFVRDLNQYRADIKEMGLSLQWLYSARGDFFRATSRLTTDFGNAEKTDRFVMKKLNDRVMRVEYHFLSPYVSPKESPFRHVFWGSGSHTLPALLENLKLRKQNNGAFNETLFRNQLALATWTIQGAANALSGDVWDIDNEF

B3: C5V30-NT(8-13) (VHH)
VHH: EVQLVESGGGVVQPGGSLKLSCVASGTDKSINFIRWYRQAPGKQREFVAGFTATGNTNYADSMKGRFTISRDNTKNAVYLQIDSLKPEDTAVYYCYMLDKWGQGTQVTVSS
- Kd [5]: 16.7 nM
- Kd [6]: 25.6 nM

B5: B8V31-NT(8-13) (VHH)
VHH: EVQLVESGGGVVQPGGSLRLSCAASGEIKSINFMRWYRQAPGKQREWVAGFTRDGSTNYPDSAKGRFTISRDNAKNTVYLQIDSLKPEDTAVYYCYMLDTWGQGTQVTVSS
- Kd [5]: 25.6 nM
- Kd [10]: 16.7 nM

More lines, now with the values ahead:

- binding result [1]: no binding
- binding result [2]: no binding
B1: D12 (neg ctrl) (VHH)
VHH: EVQLVESGGGLVQPGGSLRLSCAASGFTFGSYVMSWVRQAPGKGPEWVSTVSSGGGTTYYADSVKGRFTISRDNAQNTLYLQMNSLKPEDTAVYYCATGRTGLGEGDHRGQGTQVTSSAAAEQKLISEEDLNGAAHHHHHHGS
notes: also called control VHH D12

- Kd [3]: 255 nM
- binding result [4]: binds
B2: VHH A7 (C5^V7) (VHH)
VHH: EVQLVESGGGVVQPGGSLKLSCVASGTDFSINFIRWYRQAPGKQREFVAGFTATGNTNYADSMKGRFTISRDNTKNAVYLQIDSLKPEDTAVYYCYMADKWGQGTQVTVSS

- binding result [2]: no binding
- Kd [7]: 3.4 nM
- Kd [8]: 2.1 nM
- IC50 (read off the curve) [9]: ~40 nM
B4: E8 (VHH)
VHH: EVQLVESGGRLVQAGGSLRLSCTASGLAFSTHTMHWFRQAPGKEREFVGAIRWSDEDTEYADSVKGRFTISRDNAKSTVYLQMNNLKPEDTAVYYCAAARGVGTSGHMKYWGQGTQVTVSS
